# Data reported in US20200353078A1 (AstraZeneca / MedImmune, published 2020).
# T1: Endogenous human IL-33 (human, UniProt O95760 1-270, limits assumed)
# T1 sequence (looked up): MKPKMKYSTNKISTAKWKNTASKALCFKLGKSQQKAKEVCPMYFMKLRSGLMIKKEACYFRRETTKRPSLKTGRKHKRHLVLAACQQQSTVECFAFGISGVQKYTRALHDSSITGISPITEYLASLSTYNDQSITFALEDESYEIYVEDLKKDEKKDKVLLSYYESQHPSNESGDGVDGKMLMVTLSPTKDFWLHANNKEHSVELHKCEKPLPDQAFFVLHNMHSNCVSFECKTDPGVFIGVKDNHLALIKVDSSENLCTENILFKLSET
# T2: Full-length human IL-33 (amino acids 1-270), HEK293-EBNA cell lysate (human, UniProt O95760 1-270)
# T2 sequence (looked up): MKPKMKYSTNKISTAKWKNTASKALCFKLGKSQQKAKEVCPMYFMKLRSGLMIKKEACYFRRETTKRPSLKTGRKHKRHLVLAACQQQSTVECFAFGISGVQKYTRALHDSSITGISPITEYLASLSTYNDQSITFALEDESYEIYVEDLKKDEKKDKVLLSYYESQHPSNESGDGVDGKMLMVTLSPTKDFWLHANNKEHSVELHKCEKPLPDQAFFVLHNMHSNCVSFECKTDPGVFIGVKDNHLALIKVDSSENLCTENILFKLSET
# T3: His10/Avi Human IL33-01 (human)
# T3 construct: Wild type mature IL-33 with N-terminal 10xHis, Avitag and Factor Xa site; biotinylated by BirA on the Avitag where used biotinylated; reduced form unless treated; also called N-terminal His Avi IL-33; His-Avi human IL-33 wild type
# T3 chain: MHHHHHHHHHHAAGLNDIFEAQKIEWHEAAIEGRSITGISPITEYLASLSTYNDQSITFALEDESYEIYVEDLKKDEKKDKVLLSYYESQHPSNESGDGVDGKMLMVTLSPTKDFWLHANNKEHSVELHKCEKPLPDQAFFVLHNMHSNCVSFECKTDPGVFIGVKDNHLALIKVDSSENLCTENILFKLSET
# T4: His10/Avi Cyno IL-33 (cynomolgus monkey)
# T4 construct: also called Cynomolgus 10His Avitag IL-33; biotinylated His Avi cynomolgus IL-33
# T4 chain: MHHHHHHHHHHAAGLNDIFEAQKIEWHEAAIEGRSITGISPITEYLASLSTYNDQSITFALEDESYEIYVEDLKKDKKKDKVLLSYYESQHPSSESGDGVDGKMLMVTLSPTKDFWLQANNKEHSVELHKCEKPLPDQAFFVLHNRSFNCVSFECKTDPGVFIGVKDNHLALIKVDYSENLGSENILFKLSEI
# Tests used:
# Endogenous human IL-33 = molecular target: T1, Endogenous human IL-33; test: cell-based or functional assay
# [1] = molecular target: T2, Full-length human IL-33 (amino acids …); test: cell-based or functional assay
# His10/Avi Human IL33-01 [2] = molecular target: T3, His10/Avi Human IL33-01; test: HTRF epitope competition, IgG titrated; competitor DyLight labelled 33_640117 IgG; 1 hour
# Outline: (§1)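 HTRF competition in which titrated IgG blocks binding of DyLight-labelled 33_640117 IgG (2.5 nM stock) to biotinylated IL-33 detected with streptavidin cryptate: human IL-33-01 at 0.12 nM with 0.75 nM cryptate, cyno IL-33 at 0.24 nM with 1.5 nM cryptate (solution concentrations). Fluorescence read after 1 h and overnight.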
# His10/Avi Cyno IL-33 = molecular target: T4, His10/Avi Cyno IL-33; test: as above
# Outline: as §1
# His10/Avi Human IL33-01 [3] = molecular target: T3, His10/Avi Human IL33-01; test: HTRF epitope competition, IgG titrated; competitor DyLight labelled 33_640117 IgG; overnight
# Outline: as §1
# His10/Avi Human IL33-01 [4] = molecular target: T3, His10/Avi Human IL33-01; test: HTRF competition: purified IgG against FLAG-His human ST2 for biotinylated IL33-01, overnight incubation
# 33_640087-7B IgG1 = molecular target: T5, 33_640087-7B IgG1; test: HTRF: unlabelled test protein competes with biotinylated human IL33-01 for DyLight650 labelled 33_640087-7B IgG
# T5 construct: IgG1
# Description: Human, cyno and mouse IL-33 FLAG® His (described in Example 1 and Table 21), Human IL-1 alpha and IL-1 beta (R&D Systems) (Table 21) or rat IL-33 (GenScript) were tested for inhibition of human IL-33 binding to DyLight650 labelled 33_640087-7B or DyLight650 labelled 33_640237-2B by adding 5 microlitres of each dilution of sample to a 384 well low volume assay plate (Costar, 3673). […] This was followed by the addition of 2.5 microlitres of a solution containing 0.12 nM biotinylated human IL-33-01 combined with 0.75 nM streptavidin cryptate detection (Cisbio International, 610SAKLB). All dilutions were performed in assay buffer containing 0.8 M potassium fluoride (VWR, 26820.236) and 0.1% bovine serum albumin (BSA, PAA, K05-013) in Dulbeccos PBS (Invitrogen, 14190185). Assay plates were incubated for 4 hours at room temperature followed by 18 hours at 4 degrees Celsius and time resolved fluorescence was read at 620 nm and 665 nm emission wavelengths using an EnVision plate reader (Perkin Elmer). Data were analysed by calculating the 665/620 nm ratio followed by the % Delta F values for each sample. The 665/620 nm ratio was used to correct for sample interference using Equation 1. The % Delta F for each sample was then calculated using Equation 2. […] IC₅₀ values were determined using GraphPad Prism software by curve fitting using a four-parameter logistic equation (Equation 4).
# 33_640237-2B IgG1 = molecular target: T6, 33_640237-2B IgG1; test: HTRF: unlabelled test protein competes with biotinylated human IL33-01 for DyLight650 labelled 33_640237-2B IgG
# T6 construct: IgG1
# Description: Human, cyno and mouse IL-33 FLAG® His (described in Example 1 and Table 21), Human IL-1 alpha and IL-1 beta (R&D Systems) (Table 21) or rat IL-33 (GenScript) were tested for inhibition of human IL-33 binding to DyLight650 labelled 33_640087-7B or DyLight650 labelled 33_640237-2B by adding 5 microlitres of each dilution of sample to a 384 well low volume assay plate (Costar, 3673). […] This was followed by the addition of 2.5 microlitres of a solution containing 0.12 nM biotinylated human IL-33-01 combined with 0.75 nM streptavidin cryptate detection (Cisbio International, 610SAKLB). All dilutions were performed in assay buffer containing 0.8 M potassium fluoride (VWR, 26820.236) and 0.1% bovine serum albumin (BSA, PAA, K05-013) in Dulbeccos PBS (Invitrogen, 14190185). Assay plates were incubated for 4 hours at room temperature followed by 18 hours at 4 degrees Celsius and time resolved fluorescence was read at 620 nm and 665 nm emission wavelengths using an EnVision plate reader (Perkin Elmer). Data were analysed by calculating the 665/620 nm ratio followed by the % Delta F values for each sample. The 665/620 nm ratio was used to correct for sample interference using Equation 1. The % Delta F for each sample was then calculated using Equation 2. The negative control (non-specific binding) was defined by replacing biotinylated human IL-33 combined with streptavidin cryptate detection with streptavidin cryptate detection only. The % Delta F values were subsequently used to calculate % specific binding as described in Equation 3. IC₅₀ values were determined using GraphPad Prism software by curve fitting using a four-parameter logistic equation (Equation 4).
Binder,"IC50, Huvec IL-8 release stimulated by human lung lysate (Endogenous human IL-33)","IC50, Huvec IL-8 assay vs. full length IL-33 cell lysate [1]",IC50 (His10/Avi Human IL33-01 [2]),IC50 (His10/Avi Cyno IL-33),IC50 (His10/Avi Human IL33-01 [3]),IC50 (read off the curve) (His10/Avi Human IL33-01 [4]),IC50 (read off the curve) (33_640087-7B IgG1),IC50 (read off the curve) (33_640237-2B IgG1)
"33_640050 IgG1 (antibody, V domains shown, IgG1; also called ZZ1F7Q-D10) VH: EVQLLESGGGLVQPGGSLRLSCAASGFTFSSYAMSWVRQAPGKGLEWVSAISGSGGSTYYADSVKGRFTISRDNSKNTLYLQMNSLRAEDTAVYYCPRHKFMQLWGGGLRYPFGYWGQGTMVTVSS VL: SYVLTQPPSVSVSPGQTASITCSGERMGDKYAAWYQQKPGQSPVLVIYQDTKRPSGIPERFSGSNSGNTATLTISGTQAMDEADYYCQVWDSSTGVFGGGTKVTVL",0.032 nM,0.32 nM,0.3 nM,4.1 nM,1.5 nM,~0.5 nM,–,–
"Cynomolgus IL-33 Flag®His (ligand, C-terminal FLAG 10xHis tag, E. coli; also called Mature Cynomolugus IL-33; cyno IL-33 FH) SITGISPITESLASLSTYNDQSITFALEDESYEIYVEDLKKDKKKDKVLLSYYESQHPSSESGDGVDGKMLMVTLSPTKDFWLQANNKEHSVELHKCEKPLPDQAFFVLHNRSFNCVSFECKTDPGVFIGVKDNHLALIKVDYSENLGSENILFKLSEINPAFLYKVVGAADYKDDDDKAAHHHHHHHHHH",–,–,–,–,–,–,~10 nM,~200 nM
